Measured values from patent publication US20070032417A1, “Peptides and therapeutic uses thereof” (priority 2002, published 2007).
Bridges are numbered along the chain shown (N, C = ends).

Molecular target: GST tagged Bcl w delta C29 protein (UniProt Q92843)
Assay: AlphaScreen competition, GST detection; competitor biotinylated Bim BH3-26 peptide

IC50: 0.3 nM
Binder: Ac-IWIAQELRRIGDEFNA-NH2 (linker 6-13 via ‑NHCH2C(═O)(CH2)2NH2‑)
